Patent publication US20260022128A1 (AbbVie / Abbott, published 2026)

B1: ADC-1 (AbA conjugated to linker drug LD1, structural formula VIII) (antibody, IgG1, V domains shown)
VH: QVQLVQSGAEVKKPGASVKVSCKASGYIFTAYTMHWVRQAPGQGLEWMGWIKPNNGLANYAQKFQGRVTMTRDTSISTAYMELSRLRSDDTAVYYCARSEITTEFDYWGQGTLVTVSS
VL: DIVMTQSPDSLAVSLGERATINCKSSESVDSYANSFLHWYQQKPGQPPKLLIYRASTRESGVPDRFSGSGSGTDFTLTISSLQAEDVAVYYCQQSKEDPLTFGGGTKVEIKR
modifications: TOP1i linker drug LD1 (structural formula V) linked via sulfhydryl groups of reduced cysteine residues; positions not given
B2: ADC-3 (AbA conjugated to linker drug LD3, structural formula X) (antibody, IgG1, V domains shown)
VH: B1 VH
VL: B1 VL
modifications: TOP1i linker drug LD3 (structural formula VII, maleimide, hydrolyzed) linked via sulfhydryl groups of reduced cysteine residues; positions not given
B3: ADC-2 (AbA conjugated to linker drug LD2, structural formula IX) (antibody, IgG1, V domains shown)
VH: B1 VH
VL: B1 VL
modifications: TOP1i linker drug LD2 (structural formula VI, maleimide, hydrolyzed) linked via sulfhydryl groups of reduced cysteine residues; positions not given

Target: c-Met (human, UniProt P08581 25-1390)
Sequence (P08581 25-1390): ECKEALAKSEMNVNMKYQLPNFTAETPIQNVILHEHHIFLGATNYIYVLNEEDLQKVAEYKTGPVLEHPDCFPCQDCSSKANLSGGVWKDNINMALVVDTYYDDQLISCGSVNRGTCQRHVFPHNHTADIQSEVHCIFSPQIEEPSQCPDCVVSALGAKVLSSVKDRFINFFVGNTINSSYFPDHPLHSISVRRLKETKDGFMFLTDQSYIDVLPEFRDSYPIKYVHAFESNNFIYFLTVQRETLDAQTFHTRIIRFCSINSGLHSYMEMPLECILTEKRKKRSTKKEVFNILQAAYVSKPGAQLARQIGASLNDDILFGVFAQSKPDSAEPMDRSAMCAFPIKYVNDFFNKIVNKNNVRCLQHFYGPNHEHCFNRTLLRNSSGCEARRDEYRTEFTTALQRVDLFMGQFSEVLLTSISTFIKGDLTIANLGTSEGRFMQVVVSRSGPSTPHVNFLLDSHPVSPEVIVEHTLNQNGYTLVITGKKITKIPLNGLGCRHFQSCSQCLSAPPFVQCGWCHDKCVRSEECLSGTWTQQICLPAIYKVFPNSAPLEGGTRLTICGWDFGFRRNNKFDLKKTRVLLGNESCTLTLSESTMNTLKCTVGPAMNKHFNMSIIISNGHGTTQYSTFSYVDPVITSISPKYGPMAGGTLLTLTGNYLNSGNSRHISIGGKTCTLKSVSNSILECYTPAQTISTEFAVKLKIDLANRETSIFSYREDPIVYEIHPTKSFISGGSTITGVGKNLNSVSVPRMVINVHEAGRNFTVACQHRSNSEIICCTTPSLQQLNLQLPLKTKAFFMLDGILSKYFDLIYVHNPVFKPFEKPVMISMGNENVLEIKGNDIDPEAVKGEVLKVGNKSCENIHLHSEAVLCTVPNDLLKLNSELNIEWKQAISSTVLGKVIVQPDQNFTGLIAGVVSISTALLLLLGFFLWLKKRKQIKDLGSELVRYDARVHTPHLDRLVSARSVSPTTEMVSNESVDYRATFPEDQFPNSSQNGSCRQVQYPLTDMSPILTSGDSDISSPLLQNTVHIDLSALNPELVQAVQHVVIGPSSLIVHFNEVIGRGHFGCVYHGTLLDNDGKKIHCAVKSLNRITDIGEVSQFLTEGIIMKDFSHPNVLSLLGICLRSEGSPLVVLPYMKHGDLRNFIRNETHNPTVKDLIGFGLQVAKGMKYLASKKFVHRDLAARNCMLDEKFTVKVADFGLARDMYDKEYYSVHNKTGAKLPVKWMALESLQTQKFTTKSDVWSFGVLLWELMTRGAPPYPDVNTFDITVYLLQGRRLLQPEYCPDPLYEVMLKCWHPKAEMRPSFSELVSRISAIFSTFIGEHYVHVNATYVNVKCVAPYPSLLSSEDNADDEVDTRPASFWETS
Experiment: cell-based or functional assay

Row | Binder | Cytotoxicity IC50 (nM), Calu-3 cells [nM] | Cytotoxicity IC50 (nM), HCC827 cells [nM] | Cytotoxicity IC50 (nM), HEK-293 cells (not different from control) [nM] | Cytotoxicity IC50 (nM), MIA PaCa-2 cells (not different from control) [nM] | Cytotoxicity IC50 (nM), NCI-H441 cells [nM] | Cytotoxicity IC50 (nM), NCI-H441 cells (second row so labelled) [nM] | Cytotoxicity IC50 (nM), NCI-H1573 cells (estimated due to curve-fitting issues) [nM] | Cytotoxicity IC50 (nM), SNU-5 cells [nM] | Cytotoxicity IC50 (nM), Hs 746T cells [nM] | Cytotoxicity IC50 (nM), NCI-H820 cells [nM] | Cytotoxicity IC50 (nM), NCI-H1573 cells [nM]
1 | B1 | 20 | 0.85 | > 60 | > 60 | 0.25 | 0.3 | ~1 | 0.19 |  |  | 
2 | B2 |  | 0.5 |  | > 60 |  |  |  |  | 0.05 | 0.06 | 1.1
3 | B3 |  | 0.9 |  | > 60 |  | 0.25 | ~1 |  |  | 0.16 | 
